Residue numbers refer to the chain shown, from its start. Names and notes keep the numbering of the source.
B1: recombinant human GDF-5 wild type (ligand)
chain: APLATRQGKRPSKNLKARCSRKALHVNFKDMGWDDWIIAPLEYEAFHCEGLCEFPLRSHLEPTNHAVIQTLMNSMDPESTPPTACVPTRLSPISILFIDSANNVVYKQYEDMVVESCGCR
B2: recombinant human GDF-5 mutant R399E (ligand)
chain: B1 chain with R18E, A84C
B3: recombinant human GDF-5 mutant R399M (ligand)
chain: B1 chain with R18M, A84C
B4: human GDF-5 mutant S439K (ligand)
chain: B1 chain with S58K, A84C
B5: human GDF-5 mutant R438K (ligand)
chain: B1 chain with R57K, A84C
B6: human GDF-5 mutant W417R (ligand)
chain: B1 chain with W36R, A84C
B7: recombinant human GDF-5 mutant I449V (ligand)
chain: B1 chain with I68V, A84C
B8: human GDF-5 mutant M412V (ligand)
chain: B1 chain with M31V, A84C
B9: recombinant human GDF-5 mutant S439E (ligand)
chain: B1 chain with S58E, A84C
B10: human GDF-5 mutant W417F (ligand)
chain: B1 chain with W36F, A84C
B11: recombinant human GDF-5 mutant W414R (ligand)
chain: B1 chain with W33R, A84C

biological target: Fc-fusion protein receptor ectodomain of BMPR-II; assay: SPR (Biacore T100), receptor ectodomain-Fc on protein G chip, equilibrium binding (KD eq)

Kd | Binder
32 nM | B1
32 nM | B2
32 nM | B3
10 nM | B4
32 nM | B5

biological target: Fc-fusion protein receptor ectodomain of BMPR-IB; assay: ratio of Biacore KDs, BMPR-IA as reference; measurement 2

fold higher IB affinity over IA, KD(IA): KD(IB) | Binder
40 fold | B1
2650 fold | B6
219 fold | B7
333 fold | B8
581 fold | B9
587 fold | B10

biological target: Fc-fusion protein receptor ectodomain of BMPR-IB; assay: ratio of Biacore KDs, BMPR-IA as reference; measurement 1

fold higher IB affinity over IA, KD(IA): KD(IB) | Binder
122 fold | B1
130 fold | B2
216 fold | B3
2400 fold | B4
668 fold | B11
717 fold | B5

biological target: Fc-fusion protein receptor ectodomain of BMPR-IB; assay: ratio KD(IA):KD(IB) from Biacore, relative to wild type

fold higher IB affinity over IA compared to WT | Binder
1 fold | B1
1.1 fold | B2
56.2 fold | B6
1.8 fold | B3
19.7 fold | B4
5.5 fold | B7
8.3 fold | B8
5.5 fold | B11
14.5 fold | B9
14.7 fold | B10
5.9 fold | B5

biological target: Fc-fusion protein receptor ectodomain of BMPR-IB; assay: SPR (Biacore T100), receptor ectodomain-Fc on protein G chip, kinetic 1:1 fit; measurement 2

Kd | Binder
0.027 nM | B1
0.037 nM | B6
0.026 nM | B7
0.039 nM | B8
0.043 nM | B9
0.046 nM | B10

biological target: Fc-fusion protein receptor ectodomain of BMPR-IA; assay: as above

Kd | Binder
1.1 nM | B1
98 nM | B6
5.7 nM | B7
13 nM | B8
25 nM | B9
27 nM | B10

biological target: Fc-fusion protein receptor ectodomain of BMPR-IB; assay: SPR (Biacore T100), receptor ectodomain-Fc on protein G chip, kinetic 1:1 fit; measurement 1

Kd | Binder
0.008 nM | B1
0.172 nM | B2
0.0025 nM | B3
0.01 nM | B4
0.03 nM | B11
0.045 nM | B5

biological target: Fc-fusion protein receptor ectodomain of BMPR-IA; assay: as above

Kd | Binder
1 nM | B1
22.5 nM | B2
0.54 nM | B3
43.4 nM | B4
20.3 nM | B11
32.5 nM | B5

From patent publication US20140369978A1
